Key:
[1] = molecular target: C-terminal domain of SepF from M. tuberculosis (tbSepF-CTD, residues 146-241) (M. tuberculosis); test: ITC
[2] = molecular target: C-terminal domain of SepF from M. tuberculosis (tbSepF-CTD, residues 146-241) (M. tuberculosis); test: SAXS
[3] = molecular target: C-terminal domain of SepF from M. tuberculosis (tbSepF-CTD, residues 146-241) (M. tuberculosis); test: AUC

Sequence of C-terminal domain of SepF from M. tuberculosis (tbSepF-CTD, residues 146-241) (M. tuberculosis) (A1KKJ0 123-218 limits assumed): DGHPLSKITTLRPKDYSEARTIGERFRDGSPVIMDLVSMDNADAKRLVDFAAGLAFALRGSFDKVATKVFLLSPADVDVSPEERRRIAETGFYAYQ

Row | Substance | Kd [1] [µM] | stoichiometry N [1] | stoichiometry N [2] | stoichiometry N [3]
1 | chemically synthesized 18-residue peptide from the C-terminal region of tbFtsZ | 19.7 | 1 | – | –
2 | C-terminal domain of SepF from M. tuberculosis (tbSepF-CTD, residues 146-241) (domain or fragment) | – | – | 2 | 2

Reference: publication doi:10.1101/2024.07.18.604210
